The source of these data is patent US11298427B2, “Prodrugs comprising a pyroglutamate linker” (Ascendis Pharma A/S, priority 2015, dated 2022).

The data set in a line: hydrolysis / release kinetics of linker-peptide conjugates in buffer at 37° C., LCMS analysis, half-life by curve fitting. It is filed as physicochemical. As to the method: The hydrolysis kinetics of PEGylated linker-peptide conjugate 8 were studied at pH 7.4, 37° C. and pH 8.9, 37° C. Therefore, the starting material 8 was dissolved in two different buffers (60 mM phosphate, pH 7.4 and 100 mM borate pH 8.9, respectively). The resulting solutions were incubated in a water bath at 37° C. At given points in time samples were withdrawn, quenched and analyzed by LCMS. Curve fitting software was applied to determine the corresponding half-life of the release.
Release kinetics were setup and analyzed according to example 5 with additional buffers at 37° C.
Release kinetics were setup and analyzed according to example 5 with changed buffers.

Setting [1] is: sodium phosphate buffer, pH 7.4, 100 mM sodium phosphate, pH 7.4, 37° C., read-out: half-life (converted).

Read-outs that look alike come from different tables or passages of the source.

On to `COCCOCCOCCOCCOCCOCCOCCOCCNC(=O)[C@@H](N)CCC(=O)NCCCC[C@H](NC(=O)[C@H](CO)NC(C)=O)C(=O)N[C@@H](Cc1ccc(O)cc1)C(=O)O` [Compound 8], for which the half-life by setting is: (borate buffer, pH 8.9, 100 mM borate, pH 8.9, 37° C., read-out: half-life of release of Ac-Ser-Lys-Tyr-OH (9) (converted)) 220 days; (phosphate buffer, pH 7.4, 60 mM phosphate, pH 7.4, 37° C., read-out: half-life of release of Ac-Ser-Lys-Tyr-OH (9) (converted)) 56 days.
For the compound `CN[C@@H](CCC(=O)NCCCC[C@H](NC(=O)[C@H](CO)NC(C)=O)C(=O)N[C@@H](Cc1ccc(O)cc1)C(=O)O)C(=O)N(C)CCOCCOCCOCCOCCOCCOCCOCCOC` [Compound 25c], the half-life reads like this: (HEPES buffer, pH 7.4, 60 mM HEPES, 130 mM NaCl, pH 7.4, 37° C., read-out: half-life (converted)) 149 days; (sodium borate buffer, pH 9, 100 mM sodium borate, pH 9.0, 37° C., read-out: half-life (converted)) 92 days; (sodium citrate buffer, pH 4, 100 mM sodium citrate, pH 4.0, 37° C., read-out: half-life (converted)) 129 days; (sodium citrate buffer, pH 5.5, 100 mM sodium citrate, pH 5.5, 37° C., read-out: half-life (converted)) 207 days; (sodium citrate buffer, pH 6.5, 30 mM sodium citrate, pH 6.5, 37° C., read-out: half-life (converted)) 339 days; (sodium citrate buffer, pH 6.5, 100 mM sodium citrate, pH 6.5, 37° C., read-out: half-life (converted)) 336 days. The half-life runs as follows: (sodium phosphate buffer, pH 6.5, 100 mM sodium phosphate, pH 6.5, 37° C., read-out: half-life (converted)) 35 days; (sodium phosphate buffer, pH 7.4, 30 mM sodium phosphate, pH 7.4, 37° C., read-out: half-life (converted)) 55 days; (sodium phosphate buffer, pH 7.4, 60 mM sodium phosphate, pH 7.4, 37° C., read-out: half-life (converted)) 36 days; under setting [1], 55 days; (sodium phosphate buffer, pH 7.4, 200 mM sodium phosphate, pH 7.4, 37° C., read-out: half-life (converted)) 17 days.
With `CN[C@@H](CCC(=O)NCCCC[C@H](NC(=O)[C@H](CO)NC(C)=O)C(=O)N[C@@H](Cc1ccc(O)cc1)C(=O)O)C(=O)NCCOCCOCCOCCOCCOCCOCCOCCOC` [Compound 25b], the half-life under setting [1] was 164 days.
Take `COCCOCCOCCOCCOCCOCCOCCOCCN(C)C(=O)[C@@H](N)CCC(=O)NCCCC[C@H](NC(=O)[C@H](CO)NC(C)=O)C(=O)N[C@@H](Cc1ccc(O)cc1)C(=O)O` [Compound 25a]: under setting [1], the half-life is 26 days.

The half-life is how long it takes for the measured level to halve.
